Data as given in patent publication US20170184604A1, “DD1ALPHA RECEPTOR AND USES THEREOF IN IMMUNE DISORDERS” (THE GENERAL HOSPITAL CORPORATION, priority 2014, published 2017).

Tests used:
Assay in all cases: Ig fusion protein staining of 293T transfectants (flow cytometry)
Settings in all cases: cell surface staining
DD1α = type: binding, human
Procedure: (§1) The bound Ig fusion proteins were detected with anti-Ig-APC. Empty vector (pcDNA3.1)-transfected cells stained with Ig proteins are shown as a negative control (gray filled) and other staining is shown as black open. […] Purified CD4+ T cells from Wt and DD1α−/− mice were assayed for binding to Ig fused DD1α or PD1 proteins. […] The bound Ig fusion proteins were detected by anti-Ig-APC. Binding amounts were determined by percentage of APC positive cells compared to control Ig protein-bound cells. […] The bead bound proteins were eluted and determined by western blot analysis using anti-HA antibody (asterisks). […] The bead bound proteins were eluted and detected by western blot analysis with anti-DD1α or anti-PD1 antibody (asterisk). […] MCF7 cells were treated by Nutlin-3 (10 μM) for 1 to 3 days. MCF7 cells were transfected with control siRNA or p53 siRNA for 24 hours and treated with CPT (500 nM) or DMSO (control) for 1 and 2 days. The levels of indicated proteins were analyzed by western blot analysis. Total RNAs from control siRNA or p53 siRNA transfected MCF7 cells were assessed for mRNA levels of PD1 or PD-L1 by real-time quantitative PCR.

PD-1 = biological target: T1, PD-1 (Homo sapiens, UniProt Q15116); type: binding
T1 construct: full length human PD-1 and Tim3 cDNA (Sino biological) were cloned into pcDNA3.1(−) tagged with HA at C-terminus; host or cells: HEK293T
Procedure: as §1

TIM-3 = biological target: T2, TIM-3 (Homo sapiens, UniProt Q8TDQ0); type: binding
T2 construct: full length human PD-1 and Tim3 cDNA (Sino biological) were cloned into pcDNA3.1(−) tagged with HA at C-terminus; host or cells: HEK293T
Procedure: as §1

T1 sequence (Q15116 25-288): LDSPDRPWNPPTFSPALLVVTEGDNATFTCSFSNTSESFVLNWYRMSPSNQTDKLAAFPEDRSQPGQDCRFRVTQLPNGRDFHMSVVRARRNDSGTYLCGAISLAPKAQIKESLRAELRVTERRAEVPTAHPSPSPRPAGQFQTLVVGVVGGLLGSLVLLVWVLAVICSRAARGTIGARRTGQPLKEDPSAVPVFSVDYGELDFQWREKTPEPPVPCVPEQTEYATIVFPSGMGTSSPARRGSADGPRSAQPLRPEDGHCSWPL
DD1α, sequence (Q9H7M9 33-311): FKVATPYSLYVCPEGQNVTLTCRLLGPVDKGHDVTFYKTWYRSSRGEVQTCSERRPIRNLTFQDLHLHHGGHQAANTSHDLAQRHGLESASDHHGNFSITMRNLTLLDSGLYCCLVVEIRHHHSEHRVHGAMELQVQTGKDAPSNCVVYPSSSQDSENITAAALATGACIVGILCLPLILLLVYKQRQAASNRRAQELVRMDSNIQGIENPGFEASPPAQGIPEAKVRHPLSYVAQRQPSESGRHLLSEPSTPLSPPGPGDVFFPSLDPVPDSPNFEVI

binding to PD-1-transfected 293T cells (PD-1): specifically bound
binding to TIM-3 transfectants (TIM-3): not to PD-L1 or TIM-3 transfectants
Substance: DD1α-Ig: the extracellular region of DD1α fused with the immunoglobulin G Fc segment
binding to DD1α-transfected 293T cells (DD1α): specifically bound
